± gives the standard deviation of the averaged measurements.

For this data set, the system named is ATP. Briefly: switch fluorescence ratio, 500 uM ATP over buffer (Cy3 cluster intensity, sum of 5 cycles each) (fold (ratio)); higher = stronger signal-on switching upon ATP binding; sequences stand for … in TCGTCGGCAGCGTCAGATGTGTATAAGAGACAGTTTTTTTTTTTTTTTTTTTTTTTTT…TC. To be noted: aptamer strand: ATP DNA aptamer (quencher-CACCTGGGGGAGTATTGCGGAGGAAGG + anchor), 100 nM annealed; ATP concentration: 500 uM. The method in brief:
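Exposure to 500 uM ATP lasted 15 min at 22 °C before imaging, and a selection-buffer image was taken beforehand, for Cy3-labelled switching-strand clusters on a modified Illumina MiSeq flow-cell annealed to 100 nM quencher-labelled ATP aptamer. Five buffer/ATP cycles were run with NaOH stripping and re-annealing between them. The fluorescence ratio per cluster is summed target-cycle over summed buffer-cycle Cy3 intensity, averaged per switch-domain sequence. Clusters outside 100-1000 RFU were excluded.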
Turning to TGGTATAGTC, the switch fluorescence ratio was 1.001 ± 0.0059.

On to TTGAAGTAAG, for which the switch fluorescence ratio was 0.994 ± 0.019.

TTTTTTCT: the switch fluorescence ratio stood at 0.987 ± 0.02.

As for TTTTGAGCGA, the switch fluorescence ratio is 1.07 ± 0.051.

TTCCATGAGT: the switch fluorescence ratio stood at 0.963 ± 0.019.

Turning to AATCATTAGC, the switch fluorescence ratio came out at 0.985 ± 0.049.

As to TTTAAGGGCG, the switch fluorescence ratio was 0.981 ± 0.045.

For CGAGTAGGGA, the switch fluorescence ratio turned out to be 0.995 ± 0.021.

In the case of CTGTTAATTG, the switch fluorescence ratio is 1.016 ± 0.0081.

In the case of TTGCATTATA, the switch fluorescence ratio worked out at 1.07 ± 0.054.

For the sequence TTTATTTTG, the switch fluorescence ratio stood at 0.95563 ± 0.00051.

As for GATTGATTTT, the switch fluorescence ratio was 1.02 ± 0.044.

On to GGGTTCTTTA, for which the switch fluorescence ratio is 0.997 ± 0.048.

Regarding TGCTGGGCTG, the switch fluorescence ratio was 1.01 ± 0.025.

Take TTCGGGCGAT: the switch fluorescence ratio is 1.01 ± 0.013.

As to TTTAAGTTTT, the switch fluorescence ratio stood at 1 ± 0.022.

For the sequence CGTGACAGAG, the switch fluorescence ratio is 0.992 ± 0.02.

With ATGAGTAAAG, the switch fluorescence ratio is 0.999 ± 0.025.

In the case of CCCAGTTTGG, the switch fluorescence ratio turned out to be 1.01 ± 0.015.

Turning to CGTGCGGGGA, the switch fluorescence ratio worked out at 1.02 ± 0.032.

In the case of TCCGGCCAGC, the switch fluorescence ratio is 1.28 ± 0.025.

Consider CCAAGTTTTT, for which the switch fluorescence ratio came to 0.98 ± 0.031.

Turning to ACGGTTGCGC, the switch fluorescence ratio came to 1.01 ± 0.034.

With CCAGGGCGGC, the switch fluorescence ratio stood at 0.854 ± 0.019.

Turning to CCCAGAGTTC, the switch fluorescence ratio is 1.06 ± 0.023.

Consider TTTGGGAGAT, for which the switch fluorescence ratio was 0.951 ± 0.023.

As for AGGGAGTCTC, the switch fluorescence ratio is 0.98 ± 0.031.

Turning to GAAATTTTGT, the switch fluorescence ratio worked out at 0.994 ± 0.012.

Take CCAGGTAAGT: the switch fluorescence ratio amounted to 1.11 ± 0.11.

For GATATTATCA, the switch fluorescence ratio was 1.017 ± 0.0049.

For TTTCGCTCGC, the switch fluorescence ratio was 1.13 ± 0.02.

Take ATGCTGACCT: the switch fluorescence ratio amounted to 1.01 ± 0.034.

Regarding TCAAGAAATC, the switch fluorescence ratio is 0.983 ± 0.091.

As for TTTTAGGGTC, the switch fluorescence ratio amounted to 1.11 ± 0.2.

Consider GGAAGTTTTT, for which the switch fluorescence ratio stood at 0.9946 ± 0.0079.

As to GCTGTAGTTT, the switch fluorescence ratio turned out to be 0.973 ± 0.015.

As to CATCTAGTGC, the switch fluorescence ratio amounted to 1.045 ± 0.0031.

Consider CGTGATATTG, for which the switch fluorescence ratio turned out to be 1.01 ± 0.017.

TTTAGTTTTG: the switch fluorescence ratio was 1.017 ± 0.005.

TTCCCTAATC: the switch fluorescence ratio came to 1.02 ± 0.067.

For the sequence GGGGACGATA, the switch fluorescence ratio was 1 ± 0.053.

Take TTGAAAAAGG: the switch fluorescence ratio is 0.968 ± 0.018.

For ACTCCAATGG, the switch fluorescence ratio stood at 1.85 ± 0.12.

Take TTAGGTTTCT: the switch fluorescence ratio worked out at 1 ± 0.011.

Take AGGGTGGGGA: the switch fluorescence ratio is 1.01 ± 0.036.

Regarding TCAGGGTGGG, the switch fluorescence ratio stood at 1 ± 0.029.

ATCGTAAAAG: the switch fluorescence ratio stood at 0.9926 ± 0.0011.

Take GCTCTAGTGT: the switch fluorescence ratio came to 0.996 ± 0.013.

For CGGAAGTTCG, the switch fluorescence ratio amounted to 0.9774 ± 0.0048.

Consider GGATGTTTCG, for which the switch fluorescence ratio came to 1.02 ± 0.02.

AGCAGAAATT: the switch fluorescence ratio turned out to be 1.02 ± 0.054.

For the sequence CGTTATATCC, the switch fluorescence ratio was determined as 1.06 ± 0.021.

GATTTTGGCC: the switch fluorescence ratio came to 0.959 ± 0.037.

With TTTGGAAA, the switch fluorescence ratio was found to be 1.01 ± 0.033.

Consider TTTAGGAAGT, for which the switch fluorescence ratio was determined as 1.0072 ± 0.00083.

Regarding GCCTTGGACG, the switch fluorescence ratio was determined as 1.041 ± 0.0076.

For AAAAATTTTG, the switch fluorescence ratio was found to be 1.04 ± 0.056.

Consider TGGGTGTTTT, for which the switch fluorescence ratio came to 1.05 ± 0.12.

Regarding GGGTGCAGGC, the switch fluorescence ratio worked out at 0.675 ± 0.032.

For the sequence TGGGATCGTC, the switch fluorescence ratio is 0.966 ± 0.042.

In the case of GCGGGGTGGG, the switch fluorescence ratio stood at 0.9835 ± 0.0051.

As for AGGTTGGTGG, the switch fluorescence ratio is 1 ± 0.016.

With TAACTTTTTT, the switch fluorescence ratio was 1.02 ± 0.042.

As to GAGTTTAAAT, the switch fluorescence ratio came to 1.02 ± 0.022.

As for GAGAGGGGGG, the switch fluorescence ratio amounted to 1 ± 0.025.

On to TGGTCGTACG, for which the switch fluorescence ratio is 0.937 ± 0.071.

On to ATGTTTAGGG, for which the switch fluorescence ratio worked out at 1.01 ± 0.042.

In the case of GTTGTTGTGA, the switch fluorescence ratio turned out to be 0.976 ± 0.02.

With CGAGGATAAC, the switch fluorescence ratio was found to be 1.03 ± 0.043.

For CTATACTTGA, the switch fluorescence ratio turned out to be 0.999 ± 0.031.

For TATACCGGCG, the switch fluorescence ratio stood at 1.05 ± 0.076.

As to TGGAGGGGCA, the switch fluorescence ratio came out at 1.03 ± 0.022.

As for ACCTGGGCGC, the switch fluorescence ratio was found to be 1.2 ± 0.12.

For the sequence TGTGGGGTGG, the switch fluorescence ratio turned out to be 0.999 ± 0.025.

As to TGGGAATAGG, the switch fluorescence ratio turned out to be 0.993 ± 0.019.

Turning to ATTGGGAAGA, the switch fluorescence ratio is 1.02 ± 0.028.

As for AAGCTTACGG, the switch fluorescence ratio turned out to be 1.06 ± 0.056.

Take GGACTTTTTT: the switch fluorescence ratio was determined as 1.03 ± 0.016.

As to TTAACGCAA, the switch fluorescence ratio was 3.6 ± 2.

Turning to GGATGGTGTG, the switch fluorescence ratio turned out to be 0.977 ± 0.037.

On to TTACTGTTAC, for which the switch fluorescence ratio came to 1.32 ± 0.083.

In the case of TGGGGGAGTA, the switch fluorescence ratio stood at 0.952 ± 0.018.

With TCTCTGTAGG, the switch fluorescence ratio amounted to 1.03 ± 0.037.

For the sequence AATAAGGCAT, the switch fluorescence ratio was found to be 1.01 ± 0.024.

Turning to AAAAGTTGGG, the switch fluorescence ratio was 1.01 ± 0.014.

For the sequence CGATCGATAT, the switch fluorescence ratio was determined as 0.998 ± 0.032.

Take ACTAGCAGCT: the switch fluorescence ratio came out at 1.01 ± 0.025.

Take GGCTCAGGGG: the switch fluorescence ratio is 1.16 ± 0.035.

Take GGGGCAGGGA: the switch fluorescence ratio came to 0.98 ± 0.052.

For the sequence AGGGGGTGTT, the switch fluorescence ratio turned out to be 1.02 ± 0.015.

On to CAGGGGTTGG, for which the switch fluorescence ratio stood at 1.02 ± 0.028.

For TAGTGGGTTG, the switch fluorescence ratio worked out at 1 ± 0.021.

With GCTTGTACGG, the switch fluorescence ratio is 1.01 ± 0.039.

With TGGGAATGTT, the switch fluorescence ratio is 1.01 ± 0.011.

Turning to GGATGCAGAT, the switch fluorescence ratio stood at 0.997 ± 0.0094.

Consider TTTCTGGCTG, for which the switch fluorescence ratio was found to be 1.025 ± 0.0043.

Take GGTTGGGTTA: the switch fluorescence ratio amounted to 1.033 ± 0.0083.

GCTGCGGGTC: the switch fluorescence ratio worked out at 1.02 ± 0.033.

On to GGAGATTGAA, for which the switch fluorescence ratio was determined as 0.992 ± 0.019.

In the case of TTTACTTA, the switch fluorescence ratio came to 1.0157 ± 0.00064.

With GAGGGAGAAA, the switch fluorescence ratio is 1.03 ± 0.038.

On to CTCAATAGGG, for which the switch fluorescence ratio turned out to be 1.01 ± 0.038.

With TTTACTTGGG, the switch fluorescence ratio is 0.9767 ± 0.0077.

For TTAGAGGCTG, the switch fluorescence ratio was determined as 0.912 ± 0.15.

As for GTTAGAGTAT, the switch fluorescence ratio was determined as 1 ± 0.012.

As to GGGCAATATG, the switch fluorescence ratio was determined as 1.17 ± 0.06.

TTACGGTTT: the switch fluorescence ratio was determined as 1 ± 0.025.

Consider CGGCGAAGTT, for which the switch fluorescence ratio worked out at 0.9883 ± 0.0046.

Take TTATCAGTTG: the switch fluorescence ratio amounted to 1.01 ± 0.057.

TTATTTAGAC: the switch fluorescence ratio is 1 ± 0.024.

GGTTGTTAGG: the switch fluorescence ratio was found to be 0.9796 ± 0.0055.

For GGAGATATTT, the switch fluorescence ratio was 1 ± 0.011.

Regarding CATGCGTCGA, the switch fluorescence ratio came to 1.044 ± 0.0035.

With AAGCTCCATT, the switch fluorescence ratio was determined as 0.967 ± 0.016.

Consider CCTATGGCGG, for which the switch fluorescence ratio is 1.07 ± 0.017.

On to GGATCATGGT, for which the switch fluorescence ratio was 1.034 ± 0.007.

With TTTTGCTGTT, the switch fluorescence ratio is 0.987 ± 0.033.

Take GTCTTGACGA: the switch fluorescence ratio was 0.996 ± 0.019.

In the case of TTTAATCCGT, the switch fluorescence ratio is 1.01 ± 0.055.

For the sequence CTTGAGGGGA, the switch fluorescence ratio turned out to be 0.983 ± 0.032.

The values above are taken from the supplement of paper PMC10126150.
